# Reference: paper PMC7141649
# Target: actin (coated on the BLI biosensor)
# Assay: BLI; Octet RED, 25°C; APS biosensor coated with actin; rWLP (1 mM) in PBS pH 7.4 with 0.05% Tween 20 and 0.1% BSA; 300 s association, 120 s dissociation
substance,measurement,value
recombinant whirlin-like protein (as used in biolayer interferometry) (natural protein),Kd,193 nM
